Measurements from patent US7344856.
“Also recorded” adds a separate entry of the source.

Experiments:
[1] = molecular target: fusion protein PRhANP, P01160
[2] = molecular target: fusion protein expressed by pG117S4HompRHKR
[3] = molecular target: fusion protein PRhCT, P01258
Dynorphine A, P01213 = molecular target: T1, Dynorphine A, P01213
T1 chain: YGGFLRRIRPKLKWDNQ

Chain of fusion protein PRhCT, P01258 (P01258 other isoform, or with tags, fused parts or gaps): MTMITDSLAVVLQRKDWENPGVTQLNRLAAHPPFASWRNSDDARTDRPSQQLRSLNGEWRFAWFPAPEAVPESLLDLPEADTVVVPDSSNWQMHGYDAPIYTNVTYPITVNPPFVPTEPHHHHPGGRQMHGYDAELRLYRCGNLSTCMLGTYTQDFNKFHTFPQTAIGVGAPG
Chain of fusion protein PRhANP, P01160 (P01160 other isoform, or with tags, fused parts or gaps): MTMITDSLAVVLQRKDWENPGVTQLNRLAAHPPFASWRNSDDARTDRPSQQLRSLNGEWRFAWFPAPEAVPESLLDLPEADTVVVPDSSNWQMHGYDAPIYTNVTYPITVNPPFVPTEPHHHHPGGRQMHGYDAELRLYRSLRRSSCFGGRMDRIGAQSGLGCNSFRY

B1: E. coli OmpT protease (purified OmpT protease specimen) (protein)
chain: STETLSFTPDNINADISLGTLSGKTKERVYLAEEGGRKVSQLDWKFNNAAIIKGAINWDLMPQISIGAAGWTTLGSRGGNMVDQDWMDSSNPGTWTDESRHPDTQLNYANEFDLNIKGWLLNEPNYRLGLMAGYQESRYSFTARGGSYIYSSEEGFRDDIGSFPNGERAIGYKQRFKMPYIGLTGSYRYEDFELGGTFKYSGWVESSDNDEHYDPGKRITYRSKVKDQNYYSVAVNAGYYVTPNAKVYVEGAWNRVTNKKGNTSLYDHNNNTSDYSKNGAGIENYNFITTAGLKYTF
In the case of B1, the “cleavage by OmpT protease (SDS-PAGE)” value (fusion protein PKS) is reported as “PKA and PKS forming no basic amino acid pair were cleaved by OmpT protease”, the Relative amount of 4.9 kDa peptide (HPLC; 25 C, 60 min, pH 7.0) (relative to PRR = 100) (fusion protein PRR-6A) is reported as 330 and the Relative amount of 4.9 kDa peptide (HPLC; OmpT 0.1 U/ml, 25 C, 60 min) (relative to PRR = 100) (fusion protein PRR-6A) is reported as 310. For the same protein, the “cleavage by OmpT protease (SDS-PAGE)” value (fusion protein PRR-6A) was “the cleavage by OmpT protease was confirmed in the fusion proteins other than PRR-1A”, the “cleavage by OmpT protease (SDS-PAGE; OmpT 0.1 U/ml)” value (fusion protein PRR-6A) was “the cleavage by OmpT protease was observed in all of the fusion proteins” and the Relative amount of 4.9 kDa peptide (HPLC; 25 C, 60 min, pH 7.0) (relative to PRR = 100) (fusion protein PRR-4A) was 24. The Relative amount of 4.9 kDa peptide (HPLC; OmpT 2.0 U/ml, 25 C, 60 min) (relative to PRR = 100) (fusion protein PRR-4A) was 49, the “cleavage by OmpT protease (SDS-PAGE)” value (fusion protein PRR-4A) was “the cleavage by OmpT protease was confirmed in the fusion proteins other than PRR-1A” and the “cleavage by OmpT protease (SDS-PAGE; OmpT 2.0 U/ml)” value (fusion protein PRR-4A) was “the cleavage by OmpT protease was observed in all of the fusion proteins”. For the same protein, the “cleavage by OmpT protease (SDS-PAGE)” value (fusion protein PKR) was “PKK and PKR employed as positive controls were cleaved by OmpT protease”, the Relative amount of 4.9 kDa peptide (HPLC; OmpT 2.0 U/ml, 25 C, 60 min) (relative to PRR = 100) (fusion protein PRR-4K) was 96 and the “cleavage by OmpT protease (SDS-PAGE; OmpT 2.0 U/ml)” value (fusion protein PRR-4K) was “the cleavage by OmpT protease was observed in all of the fusion proteins”. The Relative amount of 4.9 kDa peptide (HPLC; OmpT 2.0 U/ml, 25 C, 60 min) (relative to PRR = 100) (fusion protein PRR-4E) was 2, the “cleavage by OmpT protease (SDS-PAGE; OmpT 2.0 U/ml)” value (fusion protein PRR-4E) was “the cleavage by OmpT protease was observed in all of the fusion proteins” and the “cleavage at sites inside the α-hANP moiety” value (fusion protein RAhANP) was “arginine-arginine alone was slightly cleaved, among the four sites (arginine-arginine, arginine-methionine, arginine-isoleucine and arginine-tyrosine) existing in α-hANP molecule ... while the other bonds were scarcely cleaved”. The “cleavage by OmpT protease (SDS-PAGE)” value (fusion protein RAhANP) was “cleavage by OmpT protease was observed in RRhANP, RAhANP and RChANP”, the “relative amount of the released α-hANP (HPLC peak at 4.7 minutes; OmpT 2.0 U/ml, 25 C, 90 min)” value (fusion protein RShANPR) was 2.2 times as much as that of RShANP and the Relative amount of 4.9 kDa peptide (HPLC; 25 C, 60 min, pH 7.0) (relative to PRR = 100) (fusion protein PRR-5A) was 89. The “cleavage by OmpT protease (SDS-PAGE)” value (fusion protein PRR-5A) was “the cleavage by OmpT protease was confirmed in the fusion proteins other than PRR-1A”, the “cleavage by OmpT protease (SDS-PAGE)” value (fusion protein PRE) was “In PRD and PRE, no cleavage by OmpT protease was observed” and the “cleavage by OmpT protease (SDS-PAGE)” value (fusion protein PKE) was “PKD and PKE were not cleaved by OmpT protease”. The “cleavage by OmpT protease (SDS-PAGE)” value (fusion protein PKK) was “PKK and PKR employed as positive controls were cleaved by OmpT protease”, the Relative amount of 4.9 kDa peptide (HPLC; 25 C, 60 min, pH 7.0) (relative to PRR = 100) (fusion protein PRR-10A) was 160 and the “cleavage by OmpT protease (SDS-PAGE)” value (fusion protein PRR-10A) was “the cleavage by OmpT protease was confirmed in the fusion proteins other than PRR-1A”. For the same protein, the Relative amount of 4.9 kDa peptide (HPLC; 25 C, 60 min, pH 7.0) (relative to PRR = 100) (fusion protein PRR-2A) was 150, the “cleavage by OmpT protease (SDS-PAGE)” value (fusion protein PRR-2A) was “the cleavage by OmpT protease was confirmed in the fusion proteins other than PRR-1A” and the “cleavage at sites inside the α-hANP moiety” value (fusion protein RChANP) was “arginine-arginine alone was slightly cleaved, among the four sites (arginine-arginine, arginine-methionine, arginine-isoleucine and arginine-tyrosine) existing in α-hANP molecule ... while the other bonds were scarcely cleaved”. The “cleavage by OmpT protease (SDS-PAGE)” value (fusion protein RChANP) was “cleavage by OmpT protease was observed in RRhANP, RAhANP and RChANP”, the Relative amount of 4.9 kDa peptide (HPLC; 25 C, 60 min, pH 7.0) (relative to PRR = 100) (fusion protein PRR-9A) was 160 and the “cleavage by OmpT protease (SDS-PAGE)” value (fusion protein PRR-9A) was “the cleavage by OmpT protease was confirmed in the fusion proteins other than PRR-1A”. For the same protein, the “cleavage by OmpT protease (SDS-PAGE)” value [1] was “PRhANP was cleaved by OmpT protease”, the Relative amount of 4.9 kDa peptide (HPLC; OmpT 2.0 U/ml, 25 C, 60 min) (relative to PRR = 100) (fusion protein PRR-4D) was 2.8 and the “cleavage by OmpT protease (SDS-PAGE; OmpT 2.0 U/ml)” value (fusion protein PRR-4D) was “the cleavage by OmpT protease was observed in all of the fusion proteins”. The Relative amount of 4.9 kDa peptide (HPLC; OmpT 0.1 U/ml, 25 C, 60 min) (relative to PRR = 100) (fusion protein PRR-6D) was 110, the “cleavage by OmpT protease (SDS-PAGE; OmpT 0.1 U/ml)” value (fusion protein PRR-6D) was “the cleavage by OmpT protease was observed in all of the fusion proteins” and the Relative amount of 4.9 kDa peptide (HPLC; OmpT 0.1 U/ml, 25 C, 60 min) (relative to PRR = 100) (fusion protein PRR-6R) was 1000. For the same protein, the “cleavage by OmpT protease (SDS-PAGE; OmpT 0.1 U/ml)” value (fusion protein PRR-6R) was “the cleavage by OmpT protease was observed in all of the fusion proteins”, the “cleavage by OmpT protease (preliminary experiments)” value [2] was “this fusion protein is cleaved at two sites when treated with OmpT protease” and the “cleavage by OmpT protease (SDS-PAGE)” value (fusion protein RShANP) was “it was confirmed that RShANP could be cleaved by OmpT protease”. For the same protein, the “cleavage efficiency by OmpT protease” value (fusion protein PRA) was “Alanine and serine were employed because they showed relatively high cleavage efficiency in Example 3; also recorded: Alanine and cysteine were selected because they provided relatively high cleavage efficiency in Example 3”, the “cleavage efficiency by OmpT protease” value (fusion protein PRS) was “Alanine and serine were employed because they showed relatively high cleavage efficiency in Example 3” and the “cleavage by OmpT protease (SDS-PAGE)” value (fusion protein PKA) was “PKA and PKS forming no basic amino acid pair were cleaved by OmpT protease”. For the same protein, the Relative amount of 4.9 kDa peptide (HPLC; OmpT 2.0 U/ml, 25 C, 60 min) (relative to PRR = 100) (fusion protein PRR-4N) was 48, the “cleavage by OmpT protease (SDS-PAGE; OmpT 2.0 U/ml)” value (fusion protein PRR-4N) was “the cleavage by OmpT protease was observed in all of the fusion proteins” and the Relative amount of 4.9 kDa peptide (HPLC; 25 C, 60 min, pH 7.0) (relative to PRR = 100) (fusion protein PRR-8A) was 200. For the same protein, the “cleavage by OmpT protease (SDS-PAGE)” value (fusion protein PRR-8A) was “the cleavage by OmpT protease was confirmed in the fusion proteins other than PRR-1A”, the Relative amount of 4.9 kDa peptide (HPLC; 25 C, 60 min, pH 7.0) (relative to PRR = 100) (fusion protein PRR-3A) was 44 and the “cleavage by OmpT protease (SDS-PAGE)” value (fusion protein PRR-3A) was “the cleavage by OmpT protease was confirmed in the fusion proteins other than PRR-1A”. For the same protein, the “cleavage by OmpT protease (SDS-PAGE)” value (fusion protein PRR-1A) was “The PRR-1A was not cleaved by OmpT protease”, the Relative amount of 4.9 kDa peptide (HPLC; OmpT 0.1 U/ml, 25 C, 60 min) (relative to PRR = 100) (fusion protein PRR-6Q) was 390 and the “cleavage by OmpT protease (SDS-PAGE; OmpT 0.1 U/ml)” value (fusion protein PRR-6Q) was “the cleavage by OmpT protease was observed in all of the fusion proteins”. The “cleavage efficiency by OmpT protease” value (fusion protein PRC) was “Alanine and cysteine were selected because they provided relatively high cleavage efficiency in Example 3”, the Relative amount of 4.9 kDa peptide (HPLC; OmpT 0.1 U/ml, 25 C, 60 min) (relative to PRR = 100) (fusion protein PRR-6N) was 430 and the “cleavage by OmpT protease (SDS-PAGE; OmpT 0.1 U/ml)” value (fusion protein PRR-6N) was “the cleavage by OmpT protease was observed in all of the fusion proteins”. For the same protein, the “cleavage by OmpT protease (SDS-PAGE)” value [3] was “PRhCT was not cleaved thereby”, the Relative amount of 4.9 kDa peptide (HPLC; OmpT 0.1 U/ml, 25 C, 60 min) (relative to PRR = 100) (fusion protein PRR-6K) was 1400 and the “cleavage by OmpT protease (SDS-PAGE; OmpT 0.1 U/ml)” value (fusion protein PRR-6K) was “the cleavage by OmpT protease was observed in all of the fusion proteins”. The Relative amount of 4.9 kDa peptide (HPLC; OmpT 2.0 U/ml, 25 C, 60 min) (relative to PRR = 100) (fusion protein PRR-4Q) was 23, the “cleavage by OmpT protease (SDS-PAGE; OmpT 2.0 U/ml)” value (fusion protein PRR-4Q) was “the cleavage by OmpT protease was observed in all of the fusion proteins” and the “cleavage by OmpT protease (SDS-PAGE)” value (fusion protein PRD) was “In PRD and PRE, no cleavage by OmpT protease was observed”. For the same protein, the “cleavage at sites inside the α-hANP moiety” value (fusion protein RRhANP) was “arginine-arginine alone was slightly cleaved, among the four sites (arginine-arginine, arginine-methionine, arginine-isoleucine and arginine-tyrosine) existing in α-hANP molecule ... while the other bonds were scarcely cleaved”, the “cleavage by OmpT protease (SDS-PAGE)” value (fusion protein RRhANP) was “cleavage by OmpT protease was observed in RRhANP, RAhANP and RChANP” and the “cleavage by OmpT protease (SDS-PAGE)” value (fusion protein PKD) was “PKD and PKE were not cleaved by OmpT protease”. It also gave a Relative amount of 4.9 kDa peptide (HPLC; 25 C, 60 min, pH 7.0) (relative to PRR = 100) (fusion protein PRR) of 100, a Relative amount of 4.9 kDa peptide (HPLC; OmpT 0.1 U/ml, 25 C, 60 min) (relative to PRR = 100) (fusion protein PRR) of 100 and a Relative amount of 4.9 kDa peptide (HPLC; OmpT 2.0 U/ml, 25 C, 60 min) (relative to PRR = 100) (fusion protein PRR) of 100. The “cleavage by OmpT protease (SDS-PAGE)” value (fusion protein PRR) was “the cleavage by OmpT protease was confirmed in the fusion proteins other than PRR-1A”, the “cleavage by OmpT protease (SDS-PAGE; OmpT 0.1 U/ml)” value (fusion protein PRR) was “the cleavage by OmpT protease was observed in all of the fusion proteins” and the “cleavage by OmpT protease (SDS-PAGE; OmpT 2.0 U/ml)” value (fusion protein PRR) was “the cleavage by OmpT protease was observed in all of the fusion proteins”. The “OmpT protease activity (cleavage of Dynorphine A, HPLC)” value (Dynorphine A, P01213) was 40 U/ml.
